Measurements reported in the nanobody polyreactivity screen of Harvey et al. (2022).

assay: yeast display, Sf9 membrane polyspecificity reagent, FACS + sequencing; frameworks hold sequencing errors
Procedure, shortened: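 A nanobody's polyreactivity label depends on the gate it was sorted from. Yeast display cells were stained with 10% biotinylated, detergent-solubilized Sf9 membrane reagent for 1 hour at 4 °C, enriched on streptavidin microbeads and sorted by FACS. The low and high (top ~1%) gates were set on anti-HA fluorescence for expression and streptavidin fluorescence for reagent binding.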

Row | Sequence | polyreactivity (PSR sort gate)
1 | QVQLVESGGGLVQAGGSLRLSCAASGRIFVRYAMGWYRQAPGKERELVAGITSGSRTNYADSVKGRFTISRDNAKNTVYLQMNSLKPEDTAVYYCNARVFRYYGIFDYWGQGTQVTVSS | high polyreactivity
2 | QVQLVESGGGLVQAGGSLRLSCAASGRIFVRYDMGWYRQAPGKERELVAAISSSDGSTYYADSVKGRFTISRDNAKNTVYLQMNSLKPEDTAVYYCNADVSLDDYDYWGQGTQVTVSS | low polyreactivity
3 | QVQLVESGGGLVQAGGSLRLSCAASGRIFVSNAMGWYRQAHGKERELVAGITWTSGSTYYADSVKGRFTISRDNAKNTVYLLMNSLKPEDTAVYYCAAEYWYGNAFDYWGEGTQVTVSS | low polyreactivity
4 | QVQLVESGGGLVQAGGSLRLSCAASGRIFVSYAMGWYRQAPGKERELVAAISSSGGSTYYADSVKGRFTISRDNAKNTVYLQMNSLKPEDTAVYYCNTDQRSRMDYWGQGTQVTVSS | low polyreactivity
5 | QVQLVESGGGLVQAGGSLRLSCAASGRIFVSYAMGWYRQAPGKERELVAAITYSVDSTYYADSVKGRFTISRDNAKNTVYLQMNSLKPEDTAVSYCATDVDWAYGYQYEYWGQGTQVTVSS | low polyreactivity
6 | QVQLVESGGGLVQAGGSLRLSCAASGRIFVSYTMGWYRQAPGKERELVAAISTDATTNYADSVKGRFTISRDNAKNTVYLQMNSLKPEDTAVYYCAADPFEYSYYTLYTSNPFYYWGQGTQVTVSS | low polyreactivity
7 | QVQLVESGGGLVQAGGSLRLSCAASGRIFVTNAMGWSRQGPGKERELVAAISYRGGRTYYADSVKGRFTISRDNAKNTVYLQMNSLKPEDTAVYYCNAVTRWPFDYWGQGTQVTVSS | high polyreactivity
8 | QVQLVESGGGLVQAGGSLRLSCAASGRIFVTYAMGWYRQAPGKERELVAAIPWDGDSTYYADSVKGRFTISRDNAKNTVYLQMNSLKPEDTAVYYCNAKKFNSHVELGYDYWGQGTQVTVSS | low polyreactivity
9 | QVQLVESGGGLVQAGGSLRLSCAASGRIFVVNAMGWYRQAPGKERELVATITRGASTYADSVKGRFTISRDNAKNTVYLQMNSLKLEDTAVYYCAAAKRPQVVRYDWTKLEYWGQGTQVTVSS | high polyreactivity
10 | QVQLVESGGGLVQAGGSLRLSCAASGRIFVVYAMGWYRQAPGKERELVAAITSSGNTNYADSVKGRFTISRDNAKNTVYLQMNSLKPEDTAVYYCAATRDYSSDYWGQGTEVTVSS | low polyreactivity
11 | QVQLVESGGGLVQAGGSLRLSCAASGRIFVVYAMGWYRQAPGKERELVASITWRGGSTYYADSVKGRFTISRDNAKNTVYLQMNSLKPEDTAVYYCAARYARYLLYDYWGQGTQVTVSS | low polyreactivity
12 | QVQLVESGGGLVQAGGSLRLSCAASGRIFVWNTMGWYRQAPGKERELVAAITSGGSTTYADSVKGRFTISRDNAKNSVSFQMNSLKPEDTAVYYCNTELDLYHPGDDYWGQGTQVTVSS | high polyreactivity
13 | QVQLVESGGGLVQAGGSLRLSCAASGRIFVYNAMGSYRQAPGKERELVAAINSGTITNSADSVKGRFTISRDNGKNTVYLQMNSRIPEDTAVSYCAAPWYPSTDYNYWGQGTQVTVSS | low polyreactivity
14 | QVQLVESGGGLVQAGGSLRLSCAASGRIFVYNAMGWYRQAPGKEWELVATITSGGSTYYADSVKGRFTISRDNAMNTVYLQMNSLKPEDTAVYYCAARRWYVHYFAYGYWGQGTQVTVSS | low polyreactivity
15 | QVQLVESGGGLVQAGGSLRLSCAASGRIFVYYAMGWYRQAPGKERELVAAISSSGGSTYYADSVKGRFTISRDNAKNTVYLQMNSLKPEDTAVYYCNAVTYFSLSYPRHDYWGQGTQVTVSS | high polyreactivity
16 | QVQLVESGGGLVQAGGSLRLSCAASGRIFVYYAMGWYRQAPGKERELVAAITASGASTYYADSVKGRFTISRDNAKNTVYLQMNSLKPEDTAVYYCNVLYPRKYWQVREYYWGQGTQVTVSS | high polyreactivity

Row | Sequence | polyreactivity (PSR sort gate)
17 | QVQLVESGGGLVQAGGSLRLSCAASGRIFVYYAMGWYRQAPGKERELVAAITYSVDSTYYADSVKGRFTISRDNAKNTVYLQMNSLKPEDTAVYDCATDVDWAYGYQYEYWGQGTQVTVSS | low polyreactivity
18 | QVQLVESGGGLVQAGGSLRLSCAASGRIFVYYTMGWYRQAPGKERELVAAITGSGGSTYYADSVKGRFTISRDNAKNTVYLQMNCLKPEDTAVYYCAARYASTGGGYKYYYWGQGTQVTVSS | high polyreactivity
19 | QVQLVESGGGLVQAGGSLRLSCAASGRIFVYYTMGWYRQAPGKERELVAAITGSGGSTYYADSVKGRFTISRDNAKNTVYLQMNSLKPEDTAVYYCAAQLGWWGSGYWGQGTQVTVSS | high polyreactivity
20 | QVQLVESGGGLVQAGGSLRLSCAASGRIFWANAMGWYRQAPGKERELVAAISYSGVSTYYADSVKGRFTISRDNAKNTVYLQMNSLIPEDTAVYYCAADRYRKYYYWGQGTQVTVSS | high polyreactivity
21 | QVQLVESGGGLVQAGGSLRLSCAASGRIFWANTMGWYRQAPGKERELVAAITYSGDSTYYADSVKGRFTISRDNAKNTVYLQMNSLKPEDTAVYYCNAVPSKFSWAVYRGQYDYDYWGQGTQVTVSS | low polyreactivity
22 | QVQLVESGGGLVQAGGSLRLSCAASGRIFWAYAMGWYRQAPGKERELVAAINGSGGSTNYADSVKGRFTISRDNAKNTVYLQMNSLIPEDTAVYYCAADWSLRLYDYWGQGTQVTVSS | low polyreactivity
23 | QVQLVESGGGLVQAGGSLRLSCAASGRIFWDNAMGWYRQAPGKERELVAAIDYRGGNTNYADSVKGRFTISRDNAKNTVYLQMNSLKPEDTAVYYCNAEWAVRYPGYDYWGQGTQVTVSS | low polyreactivity
24 | QVQLVESGGGLVQAGGSLRLSCAASGRIFWDNAMGWYRQAPGKERELVAAISDSVVITYYADSVKGRFTISRDTAKNTVYLQMNSLKPEDTAVYYCGADKRGTVYLSSFWMDYWGQGTQVTVSS | low polyreactivity
25 | QVQLVESGGGLVQAGGSLRLSCAASGRIFWDYAMGWYRQAPGKERELVAGISYSGGSTSYADSVKGRFTISRDNAKNTVYLQMKSLKPEDTAVYYCAAGPSGTFFRDYDYWGQGTQVTVSS | low polyreactivity
26 | QVQLVESGGGLVQAGGSLRLSCAASGRIFWDYAMGWYRQAPGKERELVAVITFSGDSTYYADSVKGRFTISRDNAKNTVYLQMNSLKPEDTAVYYCAAARAIRQFWYVATFEYWGQGTQVTVSS | low polyreactivity
27 | QVQLVESGGGLVQAGGSLRLSCAASGRIFWFNAMGWYRQAPGKERELVAAISGGSTNYADSVKGRFTISRDNAKNTVYLQMNSLKPEDTAVYYCAARYLRRYNWGQGTQVTVSS | high polyreactivity
28 | QVQLVESGGGLVQAGGSLRLSCAASGRIFWGNAMGWYRQAPGKEWELVAAITRRGGTTFYADSVKGRFTISRDNAKNTVYLQMNSLKPEDTAVYYCAARRYGQYDGYDSWGQGTQVTVSS | high polyreactivity
29 | QVQLVESGGGLVQAGGSLRLSCAASGRIFWGYAMGWYRQAPGKERELVAAISWSGGSTYYADSVKGRFTISRDNAKNTVYLQMNSLKPEDTAVYYCNAYSDGDEDYWGQGTQVTVSS | low polyreactivity
30 | QVQLVESGGGLVQAGGSLRLSCAASGRIFWHNAMGWYRQAPGQERELVAAITGGGSTYYADSVKGRFSISRDDAKNTVYLQMNSLKPEDTAVYYCATLGSLRYYWPGYDYWGQGTQVTVSS | low polyreactivity
31 | QVQLVESGGGLVQAGGSLRLSCAASGRIFWHNTMGWYRQAPGKERELVATITGGDGNTYYADSVKGRFTISRDNAKNTVYLQMNSLKPEDNAVYYCAKAIVSYDYGRYGKWHEYWGQGTQVTVSS | low polyreactivity
32 | QVQLVESGGGLVQAGGSLRLSCAASGRIFWQYAMGWYRQAPGNERELVAGITSNGGSTYYADSVKGRFTISRDNAKNTVYLQMNSLKPEDTAVYYCNKVRPGWTYEYGYWGQGTQVTVSS | high polyreactivity
